According to article PMC2602789:

Biological target: wild-type Tn3 resolvase (bacterial transposon Tn3) (UniProt P0ADI2)
Test: SEC

For “wild-type Tn3 resolvase (from UniProt P0ADI2 1-185) (enzyme)”, which stoichiometry N is on record?
The stoichiometry N was 2.
